In experiment [1] the target is T1, P2-AA-1HAA-D.
T1 chain: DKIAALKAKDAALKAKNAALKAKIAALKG
In words: two-hybrid library CCmax.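 Note: natural log of median RNA to DNA barcode read ratio; higher means stronger binding.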

Experiment [2] has as its target T2, P2-AA-1HAA-E.
T2 chain: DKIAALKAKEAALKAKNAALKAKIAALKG
Kind of experiment: two-hybrid library CCmax.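 Note: natural log of median RNA to DNA barcode read ratio; higher means stronger binding.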 To be noted: mean of both orientations.

The target of experiment [3] is T3, P2-AA-1HAA-I.
T3 chain: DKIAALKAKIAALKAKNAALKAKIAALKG
Kind of experiment: two-hybrid library CCmax.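 Note: natural log of median RNA to DNA barcode read ratio; higher means stronger binding.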 To be noted: mean of both orientations.

Experiment [4] addresses T4, P2-AA-1HAA-R.
T4 chain: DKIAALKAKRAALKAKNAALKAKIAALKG
Kind of experiment: two-hybrid library CCmax.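 Note: natural log of median RNA to DNA barcode read ratio; higher means stronger binding.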 The note with it: mean of both orientations.

Experiment [5] concerns the target T5, P2-AA-1HAA-S.
T5 chain: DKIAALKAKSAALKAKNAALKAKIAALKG
Kind of experiment: two-hybrid library CCmax.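 Note: natural log of median RNA to DNA barcode read ratio; higher means stronger binding.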 The note with it: mean of both orientations.

Experiment [6] deals with T6, P2-AA-1HAA-T.
T6 chain: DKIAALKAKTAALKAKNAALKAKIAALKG
In words: two-hybrid library CCmax.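 Note: natural log of median RNA to DNA barcode read ratio; higher means stronger binding.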 To be noted: mean of both orientations.

In experiment [7] the target is T7, P2-AA-1HAA-V.
T7 chain: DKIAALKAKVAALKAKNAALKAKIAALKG
In words: two-hybrid library CCmax. The note with it: mean of both orientations.

Experiment [8] deals with T8, P7A-bA.
T8 chain: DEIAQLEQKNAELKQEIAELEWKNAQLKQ
In words: two-hybrid library CCNG1.

Experiment [9] concerns the target T9, P8A-bA.
T9 chain: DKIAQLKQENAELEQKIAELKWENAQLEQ
Kind of experiment: two-hybrid library CCNG1.

Experiment [10] concerns the target T10, P9A-bA.
T10 chain: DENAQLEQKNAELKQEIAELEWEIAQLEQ
In words: two-hybrid library CCNG1.

Experiment [11] concerns the target T11, P2-AA.
T11 chain: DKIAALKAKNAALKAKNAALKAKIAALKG
In words: two-hybrid library CCmax. To be noted: mean of both orientations.

In experiment [12] the target is T12, 4H3277-bN.
T12 chain: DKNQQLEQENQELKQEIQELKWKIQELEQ
In words: two-hybrid library CCNG1.

For experiment [13], the target named is T13, 4H3298-bN.
T13 chain: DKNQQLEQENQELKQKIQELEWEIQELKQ
In words: two-hybrid library CCNG1.

Experiment [14] concerns the target T14, 4H3462-bN.
T14 chain: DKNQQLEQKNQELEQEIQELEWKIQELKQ
Kind of experiment: two-hybrid library CCNG1.

For experiment [15], the target named is T15, 4H348-bN.
T15 chain: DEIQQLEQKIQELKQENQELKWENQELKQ
In words: two-hybrid library CCNG1.

Experiment [16] has as its target T16, 4H3497-bN.
T16 chain: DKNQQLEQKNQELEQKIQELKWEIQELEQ
Kind of experiment: two-hybrid library CCNG1.

Experiment [17] addresses T17, 4H3613-bN.
T17 chain: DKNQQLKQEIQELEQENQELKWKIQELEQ
Kind of experiment: two-hybrid library CCNG1.

The target in experiment [18] is T18, 4H3628-bN.
T18 chain: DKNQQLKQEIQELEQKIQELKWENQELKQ
In words: two-hybrid library CCNG1.

In experiment [19] the target is T19, 4H3926-bN.
T19 chain: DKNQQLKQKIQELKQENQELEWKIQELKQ
Kind of experiment: two-hybrid library CCNG1.

The target of experiment [20] is T20, 4H40-bN.
T20 chain: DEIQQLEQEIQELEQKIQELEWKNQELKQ
Kind of experiment: two-hybrid library CCNG1.

Experiment [21] addresses T21, 4H477-bN.
T21 chain: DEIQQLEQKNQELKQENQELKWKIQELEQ
Kind of experiment: two-hybrid library CCNG1.

Experiment [22] concerns the target T22, 4H492-bN.
T22 chain: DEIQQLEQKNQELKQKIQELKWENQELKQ
In words: two-hybrid library CCNG1.

The target in experiment [23] is T23, 4H591-bN.
T23 chain: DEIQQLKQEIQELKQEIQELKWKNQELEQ
Kind of experiment: two-hybrid library CCNG1.

Experiment [24] deals with T24, 4H626-bN.
T24 chain: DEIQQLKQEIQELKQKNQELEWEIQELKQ
Kind of experiment: two-hybrid library CCNG1.

For experiment [25], the target named is T25, 4H741-bN.
T25 chain: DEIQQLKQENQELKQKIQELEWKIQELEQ
In words: two-hybrid library CCNG1.

Experiment [26] has as its target T26, 4H754-bN.
T26 chain: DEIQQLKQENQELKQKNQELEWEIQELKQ
In words: two-hybrid library CCNG1.

In experiment [27] the target is T27, 4H906-bN.
T27 chain: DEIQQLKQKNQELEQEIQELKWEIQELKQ
Kind of experiment: two-hybrid library CCNG1.

Experiment [28] has as its target T28, O4-bP.
T28 chain: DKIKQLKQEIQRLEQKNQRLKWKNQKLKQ
Kind of experiment: two-hybrid library CCNG1.

Experiment [29] has as its target T29, O5-bP.
T29 chain: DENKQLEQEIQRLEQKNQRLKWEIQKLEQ
In words: two-hybrid library CCNG1.

Experiment [30] has as its target T30, O6-bP.
T30 chain: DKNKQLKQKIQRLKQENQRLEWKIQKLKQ
Kind of experiment: two-hybrid library CCNG1.

The target in experiment [31] is T31, O7-bP.
T31 chain: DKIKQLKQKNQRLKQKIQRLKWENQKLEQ
Kind of experiment: two-hybrid library CCNG1.

Experiment [32] concerns the target T32, O8-bP.
T32 chain: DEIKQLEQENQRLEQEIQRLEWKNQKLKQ
In words: two-hybrid library CCNG1.

For experiment [33], the target named is T33, O9-bP.
T33 chain: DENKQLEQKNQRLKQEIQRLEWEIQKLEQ
Kind of experiment: two-hybrid library CCNG1.

Experiment [34] has as its target T34, P7SHb.
T34 chain: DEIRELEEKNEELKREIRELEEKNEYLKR
In words: two-hybrid library CCNG1.

Experiment [35] concerns the target T35, P8SHb.
T35 chain: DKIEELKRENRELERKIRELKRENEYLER
Kind of experiment: two-hybrid library CCNG1.

Experiment [36] addresses T36, P9SHb.
T36 chain: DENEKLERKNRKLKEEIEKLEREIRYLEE
In words: two-hybrid library CCNG1.

Experiment [37] has as its target T37, 4H575-bA.
T37 chain: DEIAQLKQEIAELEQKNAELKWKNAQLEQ
Kind of experiment: two-hybrid library CCNG1.

The target of experiment [38] is T38, 4H683-bA.
T38 chain: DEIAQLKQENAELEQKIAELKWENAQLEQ
In words: two-hybrid library CCNG1.

Experiment [39] concerns the target T39, 4H754-bA.
T39 chain: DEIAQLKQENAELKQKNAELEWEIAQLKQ
Kind of experiment: two-hybrid library CCNG1.

Experiment [40] concerns the target T40, 4H780-bA.
T40 chain: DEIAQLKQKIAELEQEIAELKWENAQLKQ
In words: two-hybrid library CCNG1.

In experiment [41] the target is T41, 4H797-bA.
T41 chain: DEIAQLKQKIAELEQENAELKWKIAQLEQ
Kind of experiment: two-hybrid library CCNG1.

In experiment [42] the target is T42, 4H855-bA.
T42 chain: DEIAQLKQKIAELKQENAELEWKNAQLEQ
In words: two-hybrid library CCNG1.

For experiment [43], the target named is T43, 4H918-bA.
T43 chain: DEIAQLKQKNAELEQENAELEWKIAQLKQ
In words: two-hybrid library CCNG1.

In experiment [44] the target is T44, 4H953-bA.
T44 chain: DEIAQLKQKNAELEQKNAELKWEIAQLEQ
Kind of experiment: two-hybrid library CCNG1.

The target in experiment [45] is T45, 4H968-bA.
T45 chain: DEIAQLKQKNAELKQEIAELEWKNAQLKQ
In words: two-hybrid library CCNG1.

Where two headings read alike, the source gives them in different places.

B1: P1-AA-1HAA-K (peptide)
chain: DEIAALEAEKAALEAENAALEAEIAALEG
For B1, the interaction score turned out to be 0.24 in [1] (mean of both orientations); 0.472 in [2]; 1.82 in experiment [3]; 1.56 in experiment [4]; 1.97 in experiment [5]; 2.06 in [6]. In addition, in experiment [7], the interaction score stood at 2.1.

B2: P7A-bA (peptide)
chain: DEIAQLEQKNAELKQEIAELEWKNAQLKQ
For the molecule B2, the interaction score was -0.889 in experiment [8], 1.79 in experiment [9] and -0.632 in experiment [10].

B3: P6A-bA (peptide)
chain: DKNAQLKQEIAELEQENAELEWKIAQLKQ
In the case of B3, the interaction score was 0.285 in [8], 0.137 in [9] and -1.98 in experiment [10].

B4: P1-AA-1HAA-S (peptide)
chain: DEIAALEAESAALEAENAALEAEIAALEG
In the case of B4, the interaction score in experiment [1] (mean of both orientations) worked out at 1.28; in [2], 1.97; in experiment [3], 2.17; in [4] it was 2.17; in [5] it was 1.18; in experiment [6] it was 1.87. Further, the interaction score in [7] is 2; in experiment [11], 2.06.

B5: P1-AA-1HAA-A (peptide)
chain: DEIAALEAEAAALEAENAALEAEIAALEG
For the molecule B5, the interaction score in [1] (mean of both orientations) is 1.87; in experiment [2], 1.86; in experiment [3], 2.26; in experiment [4], 1.48; in experiment [5], 2; in experiment [6], 1.64. Moreover, the interaction score was found to be 2.11 in experiment [7] and 2.29 in experiment [11].

B6: 4H3277-bN (peptide)
chain: DKNQQLEQENQELKQEIQELKWKIQELEQ
As for B6, the interaction score in experiment [12] was 1.19; in [13], -0.281; in experiment [14] it was -1; in [15], -1.89; in [16] it was -0.895; in experiment [17], -1.08. Also, the interaction score was -0.458 in experiment [18]; -0.4 in experiment [19]; 0.44 in [20]; -1.11 in experiment [21]; -1.45 in experiment [22]; -1.66 in experiment [23]. In addition, the interaction score in experiment [24] is -0.819; in [25] it was -0.405; in experiment [26] it was -1.54; in experiment [27] it was -1.79.

B7: 4H3298-bN (peptide)
chain: DKNQQLEQENQELKQKIQELEWEIQELKQ
In the case of B7, the interaction score was -2.82 in experiment [13]; -0.0887 in experiment [14]; -1.06 in experiment [16]; -1.42 in experiment [17]; -0.916 in [18]; -1.32 in [19]. In addition, the interaction score in experiment [23] was -0.882; in [24], -1.27; in [27], -0.217.

B8: O4-bP (peptide)
chain: DKIKQLKQEIQRLEQKNQRLKWKNQKLKQ
As to B8, the interaction score in experiment [28] is -0.959; in experiment [29], -0.998; in experiment [30], -0.676; in experiment [31] it was -0.866; in [32], -2.5; in experiment [33] it was -0.425.

B9: P7SHb (peptide)
chain: DEIRELEEKNEELKREIRELEEKNEYLKR
In the case of B9, the interaction score is -0.618 in [34], 1.18 in [35] and 0.021 in experiment [36].

B10: P1-AA-1HAA-H (peptide)
chain: DEIAALEAEHAALEAENAALEAEIAALEG
As to B10, the interaction score is 1.5 in [1]; 0.913 in experiment [2]; 1.98 in experiment [3]; 1.34 in experiment [4]; 1.91 in experiment [5]; 2.13 in experiment [6]. The interaction score in experiment [7] came to 1.33.

B11: 4H575-bA (peptide)
chain: DEIAQLKQEIAELEQKNAELKWKNAQLEQ
For B11, the interaction score in experiment [37] was -0.354; in [38] it was -0.37; in experiment [39], -0.786; in [40], -1.33; in [41], -0.567; in [42], 1.12. Besides, the interaction score in [43] was 0.24; in [44], -0.885; in experiment [45], -0.872; in experiment [8], -1.17.

The values are drawn from paper PMC10397247.
